Where two headings read alike, the source gives them in different places. Blank lines part the entries; values can stand above or below the compound they belong to.
How the values were obtained:
[1] = target: T1, Cuphea wrightii KAS IIIa (β-ketoacyl ACP synthase IIIa), recombinant wild-type, GenBank U15935 (Cuphea wrightii, UniProt P49244); test: Inhibition of recombinant wild-type KAS IIIa by acyl ACPs and acyl CoAs ([1-14C] acetate incorporation into acetoacetyl ACP; Lineweaver-Burk); format: biochemical
T1 construct: His6 (N); made in house; host or cells: E. coli BL21(DE3)pLys, pET 15b vector
T1 sequence (P49244 68-400 limits assumed): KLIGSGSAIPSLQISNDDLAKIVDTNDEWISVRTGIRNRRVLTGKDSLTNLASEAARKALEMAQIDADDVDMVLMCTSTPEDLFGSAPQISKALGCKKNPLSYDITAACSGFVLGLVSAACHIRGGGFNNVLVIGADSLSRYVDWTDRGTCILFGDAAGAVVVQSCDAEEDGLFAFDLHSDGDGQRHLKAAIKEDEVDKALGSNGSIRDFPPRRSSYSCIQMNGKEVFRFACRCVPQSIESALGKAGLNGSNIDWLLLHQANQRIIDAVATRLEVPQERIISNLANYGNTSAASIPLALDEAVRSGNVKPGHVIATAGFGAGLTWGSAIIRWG
Method: (§1) Wild-type KAS III and KAS IIIa mutants were expressed with a His6-tag at the N-terminus in E. coli strain BL21(DE3)pLys (Novagen, Madison, USA) and purified by nickel affinity chromatography. Purity of the synthesised KAS IIIs was evaluated by SDS-PAGE. The KAS III concentration was determined by the method of Bradford (M. M. Bradford (1976), Anal. Biochem. 72, p. 248-254).
(§2) The activity of KAS IIIa was analysed by the incorporation of radioactive acetate from [1-^14C] acetyl CoA into acetoacetyl ACP (Brück et al. (1996), Planta 198, p. 271-278). The reaction mix (50 μl) contained 100 mM sodium phosphate, pH 7.6, 10 μM [1-^14C] acetyl CoA, 20 μM malonyl ACP and 2 ng of the recombinant KAS IIIa or the KAS IIIa mutant, respectively. The reaction was initiated by adding the enzyme and was performed for a period of 5 minutes at 30° C.
(§3) In the inhibition studies of the wild-type KAS IIIa the used conditions provided for saturation with respect to the substrates acetyl CoA and […]. As regards the inhibitors non-radioactive acyl ACPs (C2-C16) or acyl CoAs (C3-C12) were added at varying concentrations. The resulting data were analysed by the method of Lineweaver-Burk. The inhibition studies of the KAS IIIa mutants with acyl ACPs were performed with 10 μM non-radioactive dodecanoyl ACP (see FIG. 3).
(§4) The KAS III activity was measured as described above in the presence of varying concentrations of acyl ACP (5-25 μM) or of acyl CoA (10-50 μM).
FIG. 2: Kinetic of the inhibition of wild-type KAS III by dodecanoyl ACP. Double reciprocal plots of the concentration of acetyl CoA (A) and malonyl ACP (B) against the activity of KAS III in the absence (●) and presence of 1 μM (▴), 2.5 μM (▪) and 5 μM (▾) dodecanoyl ACP. The respective substrate partner was maintained at a constant level at 10 μM [1-^14C] acetyl CoA and 20 μM malonyl ACP. The enzyme activity was determined by monitoring the incorporation of [1-^14C] acetate from [1-^14C] acetyl CoA into β-ketobutyryl ACP (n=8).

[2] = target: recombinant wild-type Cuphea wrightii β-ketoacyl ACP synthase IIIa (cwKAS IIIa) (Cuphea wrightii); test: inhibition of KAS IIIa enzyme activity ([1-14C] acetyl CoA incorporation), 5-25 µM acyl ACP, Lineweaver-Burk analysis
[3] = tested on: Cuphea wrightii KAS IIIa mutant Asn358Asp (N291D in the mature protein); test: Inhibition of KAS IIIa mutant Asn358Asp by dodecanoyl ACP; format: biochemical
Method: (§5) Then, three point-mutated KAS IIIs were created by the substitution of asparagine^358 by aspartate, alanine^361 by serine and alanine^362 by proline. The amplification of the overlapping DNA fragments of the KAS III mutants was performed by two separate reactions, which each contained 2 ng K3MK-pGEMT plasmid as template, 2.5 U proof-reading Pfu polymerase, 200 μM dNTPs and 50 pmol of each of the primers in a total volume of 50 μl. Each reaction mix contained a flanking primer (Fse5 or Xho3) and the corresponding mutation primer. […]
as §1
(§6) The activity of KAS IIIa was analysed by the incorporation of radioactive acetate from [1-^14C] acetyl CoA into acetoacetyl ACP (Brück et al. (1996), Planta 198, p. 271-278). […]
(§7) In the inhibition studies of the wild-type KAS IIIa the used conditions provided for saturation with respect to the substrates acetyl CoA and malonyl CoA. […] The resulting data were analysed by the method of Lineweaver-Burk. […]

[4] = tested on: Cuphea wrightii KAS IIIa mutant Ala361Ser (A294S in the mature protein); test: Inhibition of KAS IIIa mutant Ala361Ser by dodecanoyl ACP; format: biochemical
Method: as §5, §1, §6, §7

[5] = target: Cuphea wrightii KAS IIIa mutant Ala^361Ser (Cuphea wrightii); test: cell-based or functional assay
[6] = target: Cuphea wrightii KAS IIIa mutant Asn^358Asp (Cuphea wrightii); test: cell-based or functional assay
wild-type KAS IIIa = target: T2, wild-type KAS IIIa (Cuphea wrightii, UniProt P49244); test: Inhibition of wild-type KAS IIIa by acyl ACPs and acyl CoAs ([1-14C] acetyl CoA incorporation into acetoacetyl ACP); format: biochemical; details: with respect to acetyl CoA or malonyl CoA; Lineweaver-Burk
T2 construct: His6 (N); made in house; host or cells: E. coli BL21(DE3)pLys, vector pET15b
T2 sequence (P49244 68-400 limits assumed): T1 sequence (P49244 68-400 limits assumed)
Method: as §2, §3, §4
FIG. 2: Kinetic of the inhibition of wild-type KAS III by dodecanoyl ACP. […] The enzyme activity was determined by monitoring the incorporation of [1-^14C] acetate from [1-^14C] acetyl CoA into β-ketobutyryl ACP (n=8).

[7] = acyl CoA 10-50 μM, pH 7.6, 30° C., 5 minutes, Lineweaver-Burk, read-out: Ki (acyl CoAs)
[8] = in the presence of a saturation concentration (10 μM) of dodecanoyl ACP

dodecanoyl ACP, sequence (P0A6A8 2-78): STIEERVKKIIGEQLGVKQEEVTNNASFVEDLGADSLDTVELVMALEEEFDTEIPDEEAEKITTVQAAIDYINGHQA
acyl ACP, chain length 8 carbon atoms, sequence (P0A6A8 2-78): as above
acyl ACP, chain length 10 carbon atoms, sequence (P0A6A8 2-78): as above
acyl ACP, chain length 4 carbon atoms, sequence (P0A6A8 2-78): as above
acyl ACP, chain length 6 carbon atoms, sequence (P0A6A8 2-78): as above
acyl ACP, chain length 14 carbon atoms, sequence (P0A6A8 2-78): as above
acyl ACP, chain length 16 carbon atoms, sequence (P0A6A8 2-78): as above
acyl ACP, chain length 2 carbon atoms, sequence (P0A6A8 2-78): as above

Ki [1]: 20.8 ± 0.51 µM
Compound: CCC(=O)SCCNC(=O)CCNC(=O)[C@H](O)C(C)(C)COP(=O)(O)OP(=O)(O)OC[C@H]1O[C@@H](n2cnc3c(N)ncnc32)[C@H](O)[C@@H]1OP(=O)(O)O [acyl CoA C3]

Ki [1]: 91.9 ± 0.9 µM
Compound: CCCC(=O)SCCNC(=O)CCNC(=O)[C@H](O)C(C)(C)COP(=O)(O)OP(=O)(O)OC[C@H]1O[C@@H](n2cnc3c(N)ncnc32)[C@H](O)[C@@H]1OP(=O)(O)O [acyl CoA C4]

Ki [1, 7]: 42.7 ± 0.3 µM
Compound: CCCCCC(=O)SCCNC(=O)CCNC(=O)[C@H](O)C(C)(C)COP(=O)(O)OP(=O)(O)OC[C@H]1O[C@@H](n2cnc3c(N)ncnc32)[C@H](O)[C@@H]1OP(=O)(O)O [acyl CoA C6]

Ki [1, 7]: 24.4 ± 0.6 µM
Compound: CCCCCCCC(=O)SCCNC(=O)CCNC(=O)[C@H](O)C(C)(C)COP(=O)(O)OP(=O)(O)OC[C@H]1O[C@@H](n2cnc3c(N)ncnc32)[C@H](O)[C@@H]1OP(=O)(O)O [acyl CoA C8]

Ki [1, 7]: 12.5 ± 0.6 µM
Compound: CCCCCCCCCC(=O)SCCNC(=O)CCNC(=O)[C@H](O)C(C)(C)COP(=O)(O)OP(=O)(O)OC[C@H]1O[C@@H](n2cnc3c(N)ncnc32)[C@H](O)[C@@H]1OP(=O)(O)O [acyl CoA C10]

Ki [1, 7]: 20 ± 0.7 µM
Compound: CCCCCCCCCCCC(=O)SCCNC(=O)CCNC(=O)[C@H](O)C(C)(C)COP(=O)(O)OP(=O)(O)OC[C@H]1O[C@@H](n2cnc3c(N)ncnc32)[C@H](O)[C@@H]1OP(=O)(O)O [acyl CoA C12]

Compound: acyl ACP, chain length 2 carbon atoms
Ki [2]: 2.16 µM

Compound: acyl ACP, chain length 4 carbon atoms
Ki [2]: 2.9 µM

Compound: acyl ACP, chain length 6 carbon atoms
Ki [2]: 8 µM

Compound: acyl ACP, chain length 8 carbon atoms
Ki [2]: 4.1 µM

Compound: acyl ACP, chain length 10 carbon atoms
Ki [2]: 4.1 µM

Compound: acyl ACP, chain length 14 carbon atoms
Ki [2]: 4 µM

Compound: acyl ACP, chain length 16 carbon atoms
Ki [2]: 1.3 µM

Compound: dodecanoyl ACP [listing 1 of 2 here]
inhibition by acyl ACP (in words) ([3]; 10 μM dodecanoyl ACP): almost not at all inhibited | initial activity maintained [3, 8]: about 85% | inhibition by acyl ACP (in words) ([4]; 10 μM dodecanoyl ACP): almost not at all inhibited | initial activity maintained [4, 8]: about 85%

Compound: dodecanoyl ACP [listing 2 of 2 here]
initial activity maintained in the presence of a saturation concentration (10 µM) of dodecanoyl ACP [5]: 85% | initial activity maintained in the presence of a saturation concentration (10 µM) of dodecanoyl ACP [6]: 85% | Ki [2]: 0.4 µM

Compound: dodecanoyl ACP [acyl ACPs 12]
type of inhibition of KAS IIIa (wild-type KAS IIIa): not competitive

From patent publication US20030145350A1, “Method for increasing the content of fatty acids in plants and micro-organisms” (priority 2000, published 2003)
